Data as given in patent publication US20130224246A1 (MACFARLANE BURNET INSTITUTE FOR MEDICAL RESEARCH AND PUBLIC …, published 2013).

How the values were obtained:
Δ123 E2661 M + C597A = Δ123 E2661 M + C597A (HCV genotype 1a H77c, UniProt P27958 409-661); test: EIA: E2 titrated on coated MBP-LEL113-201 (5 ug/ml), detected with anti-His
[1] = molecular target: WT E2661 M + C597A (C452A, C486A, C569A, C581A, C585A, C597A and C652A) (HCV genotype 1a H77c, UniProt P27958 384-661); test: as above

B1: MBP-LEL113-201, maltose-binding protein linked to the CD81 large extracellular loop between residues 113 to 201 (receptor)
chain: FVNKDQIAKDVKQFYDQALQQAVVDDDANNAKAVVKTFHETLDCCGSSTLTALTTSVLKNNLCPSGSNIISNLFKEDCHQKIDDLFSGK
notes: range 113-201; also called CD81-LEL; CD81 LEL
- binding result (Δ123 E2661 M + C597A): binds
- binding result [1]: binds
